Tests used:
[1] = biological target: T1, human 5T4 antigen (Homo sapiens, UniProt Q13641); experiment: BIACORE analysis of antibody binding to human 5T4 antigen immobilized on a CM5 chip; details: chimeric and humanized antibodies, Table 12
T1 sequence (Q13641 32-420): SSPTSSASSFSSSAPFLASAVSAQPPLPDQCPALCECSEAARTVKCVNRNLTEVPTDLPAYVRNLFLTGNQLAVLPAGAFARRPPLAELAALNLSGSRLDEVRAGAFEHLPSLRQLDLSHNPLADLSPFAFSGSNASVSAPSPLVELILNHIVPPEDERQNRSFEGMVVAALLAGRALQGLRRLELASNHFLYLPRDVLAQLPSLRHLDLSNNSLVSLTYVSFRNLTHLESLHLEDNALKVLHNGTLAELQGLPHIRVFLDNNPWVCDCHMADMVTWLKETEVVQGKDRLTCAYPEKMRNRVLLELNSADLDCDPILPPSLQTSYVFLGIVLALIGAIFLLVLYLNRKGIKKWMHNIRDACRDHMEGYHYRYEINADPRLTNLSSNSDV
Experimental: To assess the binding specificity and affinity of the A1, A2, and A3 antibodies, BIACORE® analysis was performed using human 5T4 antigen immobilized on a CM5 chip. BIACORE® technology utilizes changes in the refractive index at the surface layer upon binding of the antibody to the 5T4 antigen immobilized on the layer. Binding is detected by surface plasmon resonance (SPR) of laser light refracting from the surface. Analysis of the signal kinetics on rate and off rate allows discrimination between non-specific and specific interactions. The H8 anti-5T4 antibody was used as a control. H8 is a hybridoma-generated monoclonal mouse IgG1 antibody described in PCT International Publication No. WO 98/55607 and in Forsberg et al. (1997) J. Biol. Chem. 272(19):[…].
To assess the binding specificity and affinity of the chimeric and humanized H8, A1, A2, and A3 antibodies, BIACORE® analysis was performed using human 5T4 antigen immobilized on a CM5 chip. See Example 2.

[2] = biological target: T1, human 5T4 antigen; experiment: BIACORE competition assay: second antibody after saturation with first antibody; type: binding
Experimental: Epitope mapping of the H8, A1, A2, and A3 antibodies was also performed using BIACORE® using a CM5 chip with bound human 5T4 antigen. The chip was saturated with H8, A1, A2, or A3 antibody, and a first response was measured. The chip was then saturated with a second antibody from among the H8, A1, A2, and A3 antibodies, and a second response was measured. For multiple experiments, the chip was regenerated by dissociation of the bound antibodies in 10 mM glycine, pH 1.5, followed by a buffer wash. The percentages shown are the response units measured upon binding by a second antibody directly to the CM5 chip divided by the response units measured upon binding of the second antibody to a CM5 chip saturated with a first antibody.
The epitopes bound by the H8 and A3 antibodies are sterically close to each other such that the rate of association with antigen is decreased when binding of H8 is assayed in the presence of A3, and vice versa. Similar results were obtained using the chimeric and humanized H8, A1, A2, and A3 antibodies, which were prepared as described in Example 7 herein below.

[3] = system: black-tailed marmoset 5T4 ectodomain/Fc fusion protein; experiment: Cross-species reactivity ELISA, 5T4 ectodomain/Fc fusion proteins; type: binding; design: key: +: binding; −: no binding; +/−: partial binding
black-tailed marmoset 5T4 ectodomain/Fc fusion protein, sequence (as listed by the source): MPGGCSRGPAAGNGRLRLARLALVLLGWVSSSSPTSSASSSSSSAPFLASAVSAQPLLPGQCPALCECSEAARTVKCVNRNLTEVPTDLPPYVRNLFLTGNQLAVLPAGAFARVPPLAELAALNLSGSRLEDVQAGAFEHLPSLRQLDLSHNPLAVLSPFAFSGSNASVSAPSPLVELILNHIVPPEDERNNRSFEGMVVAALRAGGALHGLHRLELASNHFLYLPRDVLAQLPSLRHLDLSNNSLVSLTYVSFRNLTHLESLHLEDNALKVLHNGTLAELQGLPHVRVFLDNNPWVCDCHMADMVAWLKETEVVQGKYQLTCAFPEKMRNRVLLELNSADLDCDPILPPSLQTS
Experimental: (§1) The cross-species reactivity of anti-5T4 antibodies disclosed herein was assayed to determine relevant species for in vivo efficacy studies and toxicology analysis. Correlation of binding activity and relatedness of the different 5T4 ectodomains was also used to further describe the epitope bound by each antibody. Binding assays were performed using 5T4 ectodomains from various species fused to human IgG1 Fc. To assay binding of anti-5T4 antibodies, 5T4 ectodomain/Fc fusion proteins were transiently transfected into COS-1 cells, and ELISA assays were performed. Non-relevant human IgG4 and IgG1 antibodies were used as controls.

[4] = biological target: T2, mouse 5T4 ectodomain/Fc fusion protein (Mus musculus, UniProt Q9Z0L0); experiment: as above; type: binding; design: key: +: binding; −: no binding; +/−: partial binding
T2 construct: prepared using mouse 5T4 (amino acids 1-361); human IgG1 Fc; made in house; host or cells: COS-1 cells (transient transfection)
T2 sequence (Q9Z0L0 32-361): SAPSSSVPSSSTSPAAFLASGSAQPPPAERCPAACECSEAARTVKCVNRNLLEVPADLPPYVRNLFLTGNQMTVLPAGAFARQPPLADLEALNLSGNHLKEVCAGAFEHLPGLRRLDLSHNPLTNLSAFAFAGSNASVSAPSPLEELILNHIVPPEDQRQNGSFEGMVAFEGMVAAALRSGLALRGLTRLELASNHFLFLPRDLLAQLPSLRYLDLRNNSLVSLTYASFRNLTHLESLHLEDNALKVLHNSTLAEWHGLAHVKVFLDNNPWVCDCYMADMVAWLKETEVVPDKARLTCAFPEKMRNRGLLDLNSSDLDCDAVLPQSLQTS
Experimental: as §1

[5] = biological target: T3, rat 5T4 ectodomain/Fc fusion protein (Rattus norvegicus, UniProt Q5PQV5); experiment: as above; type: binding; design: key: +: binding; −: no binding; +/−: partial binding
T3 construct: rat 5T4 (amino acids 1-361); human IgG1 Fc; made in house; host or cells: COS-1 cells (transient transfection)
T3 sequence (Q5PQV5 32-361): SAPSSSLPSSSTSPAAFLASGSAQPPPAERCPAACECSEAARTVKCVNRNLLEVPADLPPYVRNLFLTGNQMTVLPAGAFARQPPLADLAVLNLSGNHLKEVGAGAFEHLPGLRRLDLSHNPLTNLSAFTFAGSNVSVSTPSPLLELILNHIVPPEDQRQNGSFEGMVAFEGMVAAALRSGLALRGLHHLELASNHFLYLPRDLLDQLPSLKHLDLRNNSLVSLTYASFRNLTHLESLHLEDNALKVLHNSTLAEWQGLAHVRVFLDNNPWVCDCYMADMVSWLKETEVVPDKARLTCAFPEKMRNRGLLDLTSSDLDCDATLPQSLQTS
Experimental: as §1

B1: chimeric A3: chimeric A3 antibody: murine A3 variable regions, human IgG4 heavy chain and human kappa light chain constant regions (antibody, V domains shown)
VH: EVQLVESGGGLVQPKGSLKLSCAASGFTFNTYAMNWVRQAPGKGLEWVARIRSKSNNYATYYADSVKDRFTISRDDSQSMLYLQMNNLKTEDTAMYCCVRQWDYDVRAMNYWGQGTSVTVSS
VL: DIVMTQSHIFMSTSVGDRVSITCKASQDVDTAVAWYQQKPGQSPKLLIYWASTRLTGVPDRFTGSGSGTDFTLTISNVQSEDLADYFCQQYSSYPYTFGGGTKLEIK
With B1 the “KA (1/M)” value [1] was “˜5.4 × 10^9 1/M”, the “ka (1/Ms)” value [1] was “˜5.4 × 10^4 1/Ms” and the “kd (1/s)” value [1] was “˜1.0 × 10^−5 1/s”. For the same molecule, the “Percentage of Second Antibody Bound Following Saturation With First Antibody” value ([2]; first antibody chimeric A1, 19 seconds after injection of second antibody) was 82.1%, the “Percentage of Second Antibody Bound Following Saturation With First Antibody” value ([2]; first antibody chimeric A1, 37.5 seconds after injection of second antibody) was 82.0% and the “Percentage of Second Antibody Bound Following Saturation With First Antibody” value ([2]; first antibody chimeric A1, 75 seconds after injection of second antibody) was 84.5%. The “Percentage of Second Antibody Bound Following Saturation With First Antibody” value ([2]; first antibody chimeric A1, 150 seconds after injection of second antibody) was 87.8%, the “Percentage of Second Antibody Bound Following Saturation With First Antibody” value ([2]; first antibody chimeric A1, 300 seconds after injection of second antibody) was 90.8% and the “Percentage of Second Antibody Bound Following Saturation With First Antibody” value ([2]; first antibody chimeric A1, 600 seconds after injection of second antibody) was 92.8%. The “Percentage of Second Antibody Bound Following Saturation With First Antibody” value ([2]; first antibody chimeric A2, 19 seconds after injection of second antibody) was 92.2%, the “Percentage of Second Antibody Bound Following Saturation With First Antibody” value ([2]; first antibody chimeric A2, 37.5 seconds after injection of second antibody) was 88.6% and the “Percentage of Second Antibody Bound Following Saturation With First Antibody” value ([2]; first antibody chimeric A2, 75 seconds after injection of second antibody) was 89.5%. The “Percentage of Second Antibody Bound Following Saturation With First Antibody” value ([2]; first antibody chimeric A2, 150 seconds after injection of second antibody) was 91.5%, the “Percentage of Second Antibody Bound Following Saturation With First Antibody” value ([2]; first antibody chimeric A2, 300 seconds after injection of second antibody) was 93.4% and the “Percentage of Second Antibody Bound Following Saturation With First Antibody” value ([2]; first antibody chimeric A2, 600 seconds after injection of second antibody) was 94.6%. For the same molecule, the “cross-reactivity (binding class)” value [3] was “−”, the “cross-reactivity (binding class)” value [4] was “−” and the “cross-reactivity (binding class)” value [5] was “−”.

Source: patent US20070231333A1, “ANTI-5T4 ANTIBODIES AND USES THEREOF” (Wyeth, priority 2006, published 2007)
